# Source: paper PMC10917784
# Several values for one entry are separate records, joined by “and”; a condition that tells them apart may be missing. Equal values may be shown once.
# Legend:
# SIRPα (Homo sapiens) = SIRPα (Homo sapiens) (UniProt P78324); conditions: cited from earlier work
# [1] = target: ISB 1442 with a wild-type Fc (without Fc enhancing mutations) (human); test: SPR; antibody constructs captured on a Protein L Series S CM5 chip, FcRn flowed over; Biacore 8K+, 25 °C, pH 6.0; steady state affinity model; three replicates
# [2] = target: ISB 1442, CD38 and CD47 bispecific biparatopic antibody (enhanced Fc) (human); test: as above
# trastuzumab [3] = test: as above
# [4] = target: ISB 1442, CD38 and CD47 bispecific biparatopic antibody (enhanced Fc) (human); test: SPR; antibody constructs captured on a Protein L Series S CM5 chip, Fc receptors flowed over; Biacore 8K+, 25 °C, neutral pH; 1:1 binding model (FcγRI and FcγRIIIa); three replicates
# trastuzumab [5] = test: as above
# [6] = target: ISB 1442 silenced Fc (human); test: SPR; antibody constructs immobilised on a Protein L Series S CM5 chip, increasing concentrations of FcRn flushed; Biacore 8K+, 25 °C, pH 6.0; steady state affinity model
# ISB 1442 (human) [7] = test: as above
# Trastuzumab [8] = test: SPR; antibody constructs immobilised on a Protein L Series S CM5 chip, increasing concentrations of Fc receptor flushed; Biacore 8K+, 25 °C, neutral pH; 1:1 binding model
# ISB 1442 (human) [9] = test: as above
# ISB 1442 WT Fc (human) = test: as above
# his-tagged human FcRn ECD & β2 microglobulin, sequence (P55899 24-297): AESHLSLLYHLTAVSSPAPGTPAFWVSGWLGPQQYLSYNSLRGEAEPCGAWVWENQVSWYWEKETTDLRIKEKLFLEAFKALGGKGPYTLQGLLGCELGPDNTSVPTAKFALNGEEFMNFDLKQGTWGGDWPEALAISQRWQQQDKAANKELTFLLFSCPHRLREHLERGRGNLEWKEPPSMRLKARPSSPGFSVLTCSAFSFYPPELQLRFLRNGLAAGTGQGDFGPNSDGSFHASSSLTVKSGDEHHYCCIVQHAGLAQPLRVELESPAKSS
# his-tagged human FcRn ECD & β2 microglobulin, sequence (P61769 21-119): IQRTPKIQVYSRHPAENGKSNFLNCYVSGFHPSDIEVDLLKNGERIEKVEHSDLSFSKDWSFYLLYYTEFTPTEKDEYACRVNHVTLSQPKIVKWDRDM
# his-tagged human FcγRIIIa ECD, sequence (P08637 17-208): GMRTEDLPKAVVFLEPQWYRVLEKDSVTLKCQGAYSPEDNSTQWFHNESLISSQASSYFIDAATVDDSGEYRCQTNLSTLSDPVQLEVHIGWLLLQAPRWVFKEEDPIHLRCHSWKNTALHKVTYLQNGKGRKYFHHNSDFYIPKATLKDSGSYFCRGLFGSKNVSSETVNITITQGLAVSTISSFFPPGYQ
# human FcRn ECD & β2 microglobulin, sequence (P55899 24-297): as the sequence (P55899 24-297) above
# human FcRn ECD & β2 microglobulin, sequence (P61769 21-119): as the sequence (P61769 21-119) above
# human FcγRIIIa ECD, sequence (P08637 17-208): as the sequence (P08637 17-208) above
# human FcγRI extracellular domain (ECD), sequence (P12314 16-292): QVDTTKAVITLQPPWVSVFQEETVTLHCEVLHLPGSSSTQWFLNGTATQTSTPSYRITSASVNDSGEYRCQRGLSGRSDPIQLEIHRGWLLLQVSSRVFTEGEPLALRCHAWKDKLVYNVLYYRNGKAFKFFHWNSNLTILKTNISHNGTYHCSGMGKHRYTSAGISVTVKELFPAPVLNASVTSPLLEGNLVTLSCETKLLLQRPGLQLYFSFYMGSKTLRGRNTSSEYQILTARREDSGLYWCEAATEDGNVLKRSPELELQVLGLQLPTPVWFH
substance,measurement,setting,value
CD47 (from UniProt Q08722),Kd,SIRPα (Homo sapiens),1000 nM
his-tagged human FcRn ECD & β2 microglobulin (from UniProt P55899 24-297; P61769 21-119) (complex),Kd,[1],236 nM
same,Kd,[2],129 nM and 189 nM
same,Kd,[2]; mean,181 nM
same,Kd,trastuzumab [3],253 nM and 217 nM and 203 nM
his-tagged human FcγRIIIa ECD (from UniProt P08637 17-208) (receptor),Kd,[4],13.2 nM and 12.6 nM and 13.8 nM
same,Kd,[4]; mean,13.2 nM
same,Kd,trastuzumab [5],134 nM
human FcRn ECD & β2 microglobulin (from UniProt P55899 24-297; P61769 21-119) (complex),Kd,[6],221 nM
same,Kd,ISB 1442 (human) [7],181 nM
human FcγRI extracellular domain (ECD) (from UniProt P12314 16-292) (receptor),Kd,Trastuzumab [8],0.21 nM
human FcγRIIIa ECD (from UniProt P08637 17-208) (receptor),Kd,ISB 1442 (human) [9],13 nM
same,Kd,ISB 1442 WT Fc (human),57 nM
